Experimental data from PMC5987255 (Molecular cell, 2018).

B1: mouse core RAG1 (aa 384-1008), E962Q mutant (domain or fragment, UniProt P15919 384-1008, looked up)
chain: VHINKGGRPRQHLLSLTRRAQKHRLRELKIQVKEFADKEEGGDVKAVCLTLFLLALRARNEHRQADELEAIMQGRGSGLQPAVCLAIRVNTFLSCSQYHKMYRTVKAITGRQIFQPLHALRNAEKVLLPGYHPFEWQPPLKNVSSRTDVGIIDGLSGLASSVDEYPVDTIAKRFRYDSALVSALMDMEEDILEGMRSQDLDDYLNGPFTVVVKESCDGMGDVSEKHGSGPAVPEKAVRFSFTVMRITIEHGSQNVKVFEEPKPNSELCCKPLCLMLADESDHETLTAILSPLIAEREAMKSSELTLEMGGIPRTFKFIFRGTGYDEKLVREVEGLEASGSVYICTLCDTTRLEASQNLVFHSITRSHAENLQRYEVWRSNPYHESVEELRDRVKGVSAKPFIETVPSIDALHCDIGNAAEFYKIFQLEIGEVYKHPNASKEERKRWQATLDKHLRKRMNLKPIMRMNGNFARKLMTQETVDAVCELIPSEERHEALRELMDLYLKMKPVWRSSCPAKECPESLCQYSFNSQRFAELLSTKFKYRYEGKITNYFHKTLAHVPEIIERDGSIGAWASEGNQSGNKLFRRFRKMNARQSKCYEMEDVLKHHWLYTSKYLQKFMNAHNA
B2: mouse core RAG2 (aa 1-359) (domain or fragment, UniProt P21784 1-359, looked up)
chain: MSLQMVTVGHNIALIQPGFSLMNFDGQVFFFGQKGWPKRSCPTGVFHFDIKQNHLKLKPAIFSKDSCYLPPLRYPATCSYKGSIDSDKHQYIIHGGKTPNNELSDKIYIMSVACKNNKKVTFRCTEKDLVGDVPEPRYGHSIDVVYSRGKSMGVLFGGRSYMPSTQRTTEKWNSVADCLPHVFLIDFEFGCATSYILPELQDGLSFHVSIARNDTVYILGGHSLASNIRPANLYRIRVDLPLGTPAVNCTVLPGGISVSSAILTQTNNDEFVIVGGYQLENQKRMVCSLVSLGDNTIEISEMETPDWTSDIKHSKIWFGSNMGNGTIFLGIPGDNKQAMSEAFYFYTLRCSEEDLSEDQ

Key:
crystal structure = biological target: the molecule itself; assay: crystal structure
[1] = biological target: B1; assay: crystal structure

| binding result [1] | Binder | binding result (crystal structure) |
| --- | --- | --- |
| – | B1 | binds |
| binds | B2 | – |
